We go through one molecule from publication PMC7893823, “Structural basis of nucleosomal histone H4 lysine 20 methylation by SET8 methyltransferase” (Life Science Alliance, 2021).

The assay has as its target histone H4 (human, UniProt P62805 1-103). In words: cryo-EM structure; NCP or NCP^CENP-A (0.52 μM) mixed with SET8 (1.0 or 0.94 μM) at 25°C with 0.10 mM S-adenosyl-L-homocysteine, 50 mM NaCl, 50 mM KCl; complex purified by GraFix (sucrose gradient with paraformaldehyde cross-linking). Conditions: both partners purified.

B1: human SET8 (KMT5A Isoform 2) (enzyme)
chain: MARGRKMSKPRAVEAAAAAAAVAATAPGPEMVERRGPGRPRTDGENVFTGQSKIYSYMSPNKCSGMRFPLQEENSVTHHEVKCQGKPLAGIYRKREEKRNAGNAVRSAMKSEEQKIKDARKGPLVPFPNQKSEAAEPPKTPPSSCDSTNAAIAKQALKKPIKGKQAPRKKAQGKTQQNRKLTDFYPVRRSSRKSKAELQSEERKRIDELIESGKEEGMKIDLIDGKGRGVIATKQFSRGDFVVEYHGDLIEITDAKKREALYAQDPSTGCYMYYFQYLSKTYCVDATRETNRLGRLINHSKCGNCQTKLHDIDGVPHLILIASRDIAAGEELLYDYGDRSKASIEAHPWLKH
notes: SET8 (KMT5A), human, isoform 2, UniProt Q9NQR1-2; residue numbers (Arg188, Arg192) count on isoform 2; His6 tag removed with PreScission protease (modified pET15b vector); also called PR-SET7; SETD8; source: E. coli BL21(DE3), purified (Ni-NTA, Mono S, Superdex 200)
Turning to B1, the binding result is listed as “binds”.
